According to the DeepSol protein solubility set:

Assay: soluble on expression in E. coli; label from the status in PepcDB or PDB records

Soluble on expression in E. coli, soluble:
MSLKAPYTIGWANIYSVPTWMKQTEGTITAEVEELKKAGLVRDLMITDAQGNAQTQIQHIQSMIDANVDAIVVIAGSSNALDRVISDACDKGIAVVNFDSLVNTDKVTAKINTDSNEWGATAAKWMVSQLGGKGKIIIMNGPAGISVSDDRRKGAQPVLDANPGLQVITETNTEYNVAPAQEAMTSLLFANPEIDGVLSLGGALSAGSVLAFERQGRDQVPTTGENARQFLELWKEKGLKGWATMQPNWLGALSVYTAVQALEGKDVPAFVKVPLPVIDDSTIGSYLARADKFPADGYIYSDYDKALFDKLLATKEGHHHHHH
MSLYFNKVLGMKEFGKDEKVFYRVAIRAIILQGDKILMVKSNTGDYKFPGGGVEKGETPEETLRREVQEETGYILNEVKEKFGVLIERDRRRRMGCTIFEMTSHYYLCSVIEERGEQHLDKYEEELGFTPIWISLDEVIRENENILNQREKINPWVKRETFVLKKIKEYLNENEGHHHHHH
MSNEVEQKKNIKTINDLPGISQTVINKLIEAGYSSLETLAVASPQDLSVAAGIPLSTAQKIIKEARDALDIRFKTALEVKKERMNVKKISTGSQALDGLLAGGIETRTMTEFFGEFGSGKTQLCHQLSVNVQLPPEKGGLSGKAVYIDTEGTFRWERIENMAKALGLDIDNVMNNIYYIRAINTDHQIAIVDDLQELVSKDPSIKLIVVDSVTSHFRAEYPGRENLAVRQQKLNKHLHQLTRLAEVYDIAVIITNQVMARPDMFYGDPTVAVGGHTLYHVPGIRIQLKKSRGNRRIARVVDAPHLPEGEVVFALTEEGIRDAEE
MSLIPKFREFDRERHRTDYQKGMSYAEQQDFDMGFTIWFDHIEDLDLIEKDGTINRIVMMSTGLKDKNVKEIYESDIVRNLYGELYVVEWLDGSFVLTEFYNGGYDHYIIDSSTEYEVLGNIYENPELLEDDNHASNEGHHHHHH
MSLEALKEVAGEAEGEKSAVITHRNADPDAVGAALVVREVLRALRMNPCLYSPEGISRQSKRLLEAVGEEFGPLCSPDENPLIAVVVDAANLSQIAGAESLFRAARLKVVIDHHERGSIHEEADVALVDPGAGSSSELAVKTAVEAGTPLRPSVATAALGGIVYDTGRFLRASKLSFEAAAHLLSMGADYGKVLEAGRQRGRRDRGDLSLRLAKLKAFSRLKIGRACSELLIAVTHIGSFESDVAKSLVDEAADVAVAVAERTSEFRLSVRVSPLALEKGVTARAIASMLAEKFGGEGGGHDEAGMAHIPYTAAFSAEDMAVKAFNLISGRLGWMCVKTLEKGEGGSHHHHHH
MKVLVPVKRLIDYNVKARVKSDGSGVDLANVKMSMNPFDEIAVEEAIRLKEKGQAEEIIAVSIGVKQAAETLRTALAMGADRAILVVAADDVQQDIEPLAVAKILAAVARAEGTELIIAGKQAIDNDMNATGQMLAAILGWAQATFASKVEIEGAKAKVTREVDGGLQTIAVSLPAVVTADLRLNEPRYASLPNIMKAKKKPLDEKTAADYGVDVAPRLEVVSVREPEGRKAGIKVGSVDELVGKLKEAGVI
MRLFFQHFLLFYAASAYNVSVNTNRSFLFGDVLEPLCSINVTGQNLTRSELIELFHKWEKYTSSQISSSSSISDYRKAMPCFPGPNLNLTSSNSDMIPQYPNCETFVNISKTTFGEANDLLEEVKKVRGVEQMDVSLKSVINSLSSRLQNLIDYLPDGATKNKTQERLSTLIEIGNQKLPETLRNSTRNQPPTQSTKSEFNPFELLSCFNISMMKTATVSGQTIGSIACSKFKLCSFSAVTSNPCLSNLRITEAQYDSVVNKTIAELIGEKLGGEQVQKKLGSAIGQFFGEHPRSKRTPKPRCENCTEEEYEDVTPLSDQVKMDGREELEESDDRSSGVESDESSGEVIDESYGKIDELDQEMSKRSTDSRKMSHEEITQAKIAKIRESIIDQLLTKTDDPDNSTDFQPTKRSAALEASQDNFKEALDNFRTEHIEDMTEGSGQESDRPTDSTKLYGSTQSPSEIIRPSIRTLNMETESSPVDFIENMSPISDSNDMDSSTVPNVAKKNNNFEKDLDAFRTVNNGSEKLNSSMFQELQTVLNLKLNSTMLEYAASFANISESLPKMSGEFTVSQFLQKMDINDWPTLKHLLNSMQSVFGNLPGFSQISNFIENLSSSGLDLKSVLKMIPAMNSSGTSLHKDAVLDLLNSFKSKISSSDTPKSPALEAAIQKISEASTLPTLLQNDLNSNDSSISDALNILKSNPLLSSLKI
MTFLIKRETQVDQILRDIRAVVNQMVPKEAKITEIEFEGPELVIYVKNPEAIMKDGELIKDLAKVLKKRISVRPDPEVLLPPEEAEKLIFEIVPKEAEITNIAFDPSVGEVLIEAKKPGLVIGKNGETLRLITQKVKWAPKVVRTPPLQSQTIYSIRQILQTESKDRRKFLRQVGRNIYRKPEYKSRWIRITGLGGFREVGRSALLVQTDESFVLVDFGVNVAMLNDPYKAFPHFDAPEFQYVLREGLLDAIIITHAHLDHCGMLPYLFRYNLFDGPIYTTPPTRDLMVLLQKDFIEIQQSNGQDPLYRPRDIKEVIKHTITLDYGEVRDISPDIRLTLHNAGHILGSAIVHLHIGNGLHNIAITGDFKFIPTRLLEPANAKFPRLETLVMESTYGGANDIQMPREEAEKRLIEVIHNTIKRGGKVLIPAMAVGRAQEVMMVLEEYARIGGIEVPIYLDGMIWEATAIHTAYPEYLSRRLREQIFKEGYNPFLSEIFHPVANSRERQDIIDSNEPAIIIASSGMLVGGPSVEYFKQLAPDPKNSIIFVSYQAEGTLGRQVQSGIREIPMVGEEGRTEVIKVNMEVHTIDGFSGHADRRELMNYVAKVRPRPERIITVHGEPQKCLDLATSIHRKFGISTRAPNNLDTIRLR

Soluble on expression in E. coli, not soluble:
MKTRHYSLLIFLAGSAFFPEISAQLANCQNLGTPINSTDCLCPGFVDGRLCENIKCQRWAVPDKNRCACAPGWYDRYCGLRGCRPPNEEQMDLEKRSFIIVFNTKTTMKMQLDSLKNNFKEMISKVSKNSKGVVNNWIENYIVYGFVESQSHTKIQKLFTENPDDVISFFNNMTLFDGDDTQPVLTAIQNAQQTYPKMQAHALVLVFTDSPASDATAWSHRFTDKNAEQSVLQISLIWRSKYSFFLSLPARTNFLSNGVDVYRRLSLTNHGDTFFIKDSNDLSNALLNVIGVQYFPENVQIGYGKTTDEQLQTYVDNDGDLVYILLTIRSSLQTTVPSISEATIVAEGDSYRLYSPASNIGDTVTIHCQNGTTYNYRMFIQSKNTLLFNYNDDMHIDVGNGMAVIGAKSIFLGTKNSANRDHNAHDLSGNANELTTNVSKNNTDTCSKKNLDSINDPRLQEPRQFIFILEQHSGNEQVYKTLAREINDILELVNSSTTSEYKKEFTLIAHDSAESHVLFSSYNPKIFAEKFSKLVNSLELTDNLDNTMGLLSIIHAQKMNILPTALVYYFTNQAVKNAQNLTRNWDLVKRDIEINFLTIADGVTTEIFALPKQLELVQKMTNGRLIPLGKTENSIFPIFKDMMTVTTLTTDNEQYNCHDTALEIDGYFEDGASVSISNYVTYKNPNFMSIRIDSKLFASGKWKLSALSTTGGCQITVRQKTSVGLVLGFTAATNDDNASTQIISQRSSSDSQPIFTTLKTTNHIVPTDLEIQIVNRQRYDQPVSYVKLGNAQRDTNSCSYDFISDSVVVPKSTLTMWIVSATDNAGKLILHRIFYYYLPRILSEFAVVLQGFMEIFVKLCSCSPPTLLQCLQYRPLQSQHK
MYIVVSTGDRAARIASKLPDCIIIDRDPDSAERLKEKGFNVLNGDASNPEILARFDMGEKIILADNDDFNIKVVKTAKLLGLDVYAVAADEDKCWLYEVEGVSKICGSVEALLSTIFRKNRYFEIQVEAEMEGKTL
MIHTYEEAIGWIHSRLKFGIKPGLERMRWMLEELGNPERHIKCVHLAGTNGKGSTLTYMRYMLEDAKYKVGTFTSPYIETFNERISVNGTPIADEEITELVKMVKPVVEKLDETDLGEATEFEIITVMAICYFGKVNFCDVVLFETGLGGRFDSTNVIHPVLTIITNIGHDHMHILGNTLGEIAYEKAGIIKSGVPVITGVQDEEALQVIQKVAKENRANLYEMGNHFTALHKQSSENGEQFDFTCPFASFEDVRIAMKGSHQVGNAALALMAVMYVKTYLSFLIEEEEIRTGLQEAYWVGRFEKLQSNPDIIIDGAHNPEGIESLVKTVESHYKDKNVIVLFTALGDKQLHNMVGQLETIADEIIFTTFAFDRAISAGELASYAKKESKLVFENWKEAIDTKVEMIGENDVFIITGSLYFISEVRKYIREKN
MEKYIHSVEDYHRLISYLENNLNYEDSVVNHVIYVIAKTGMRYGEIIGLTNNDTSLDEHYLHTYKRYNTSTWKWTNAKNESSKRYIPIDDKIVAALSNMIKERERINSLLRIKNKEEFLFFHYGLEHGIPSVATVNKALKKILKKLDIEPIITTKGLRHTYGSYLLHNNIDMGVVARILGHKDIQMLIQVYGHTLTEKIDKEFKEVEQIMNRILEHHHHHH
MGSDKIHHHHHHMRLNLRQIEVFRAIMLTGSISGAAKLLHVSQPAVSRLISYAEQRLGLALFERIKGRLYPTPEAQRLFVEVNAVYQGVQRVNEIAEDLIENRMGHLRIACSPNLGQSLLPRAIAAFYERLPDVRIILHTMIPNVLLQAVLTQQVELGIAFLQDTHPNVESQLLYENRMVAAVPASHPFARRKTLAVRDLANQPLIGYGSDIPLGQLVRRLFSDESLVPQVKVEVQQAHVACALAQAGTGIALIDELTVAGPVWPQIVVKPIVPTLAAPVSVLHPVPTPLSRLAHAFIDTLHSLAAHA
YEPEGNRADYWRFARALYAAGFRAGELAYNCFSYHFTPAGSMMETAAHAVGCTVFPGGTGQTEQQVRAIHDLAPSGYTGTPSFLKLILEKADELGIRLDSLRRALVSGEAFPPSLRDWLAARGIEGYQAYGSADLGMIAFETPAREGLVVGED
MSLLFSNTYRIESNAPLADKLRPKNLDDFFGQESILGHDSLLRNAILNDKVGNMIFSGPPGVGKTTLIEIISSNTRSSLIKLNAVLSSIKELRTEIANAKERLRSSNRKTILFIDEVHRFTSVQQDALLPSIENGTITFIGATTENPFFAVNKALISRARIFSLLPLNKNDLKKIIDKVIKYYSCLKDSKVVEIKEEAMNHLIKFSGGDARNLINALELGISITKENKENLVVIDLAIAEDSIQKKNIVYDKNGQNHFDVISAFIKSIRGSDPDATLYWLANMVEAGEDPNFIFRRLLISACEDIGLADPNAIVVVQSCCDAFDRVGFPEGLFFLSQASLYLAISPKSNSTKSIFKAMEAIKATNVSLVPNHLKNNASNYLNPHNYQGKWLQQEYLPTDLQGIKFWKPKDSGWEKNKYEDLPKKQKSEGHHHHHH
GPGSMVSTRETLSVEEQRYLDQELPPRELLTSLRSRDRSPTDDNETDVTVPGDSFGIMRNRVAFYKPVPRDVYSGELGECFPEGCHPLRCVNPATLHHLSERFGVSIREAVKAMQNAQMDINIAIDELCRRKCIDPPAGSFGLVGLESYASETFCLVNFTLPSLEATRDDDVLDALHELTLSAAEIPLDTPTEDLVDKFVNNWTVEDGRSCKDVLDMYDLGVNKIVLLPHGDYSVEGFYVLHPVKEDTPNIGTGAAACCLDLRTGIHNRFRFHVERIADSVSEHVIRELVHYGQDVHVLRQAYWFKPEYSVEEYIRFKESLLQPSASVFEMRYAVLAVGSYALPGYRNLVEMEKLKVAQHKYEKHYEDFMSPGKWLTSDNSQLQTVAAGGGNAPGAALHMHTNGPDVALNAMETRAGPLRRTLETSIQAHGDRVFSRFYRNNHH
MDQKGILRFHEELASLVLKMRSKGIDDVRFFTALEKIPRQQFVSSPWFKSAYDNKVIPIECGEYIERLEEQLLILYALSLKKKHRVLEIGTGSGFCTAFMACLSDRVITVDRYKTLVDLARQKFQTLGIENIVVRQIDGSRIITGFGSFDRILIWPSRSDEPKEFLELLTENGILIQAIGPDEGVQTITRYTKIASRFECLEMFQVRYQPFIEGIAETL
